Experimental data published in article PMC9988344 (mAbs, 2023).

Columns and labels:
[1] = target: T1, human uPAR on the surface of MDA-MB-231 cells (Homo sapiens (endogenous, MDA-MB-231), UniProt Q03405); test: cell-based or functional assay
[2] = target: T1, human uPAR on the surface of MDA-MB-231 …; test: flow cytometry on cells
cynomolgus monkey uPAR = cynomolgus monkey uPAR (Macaca fascicularis, UniProt Q9GK78); test: ELISA
[3] = target: recombinant human soluble uPAR (suPAR) (human, UniProt Q03405, biotin (in the BLI experiments)); test: ELISA
recombinant human soluble uPAR (suPAR), sequence (Q03405 23-305): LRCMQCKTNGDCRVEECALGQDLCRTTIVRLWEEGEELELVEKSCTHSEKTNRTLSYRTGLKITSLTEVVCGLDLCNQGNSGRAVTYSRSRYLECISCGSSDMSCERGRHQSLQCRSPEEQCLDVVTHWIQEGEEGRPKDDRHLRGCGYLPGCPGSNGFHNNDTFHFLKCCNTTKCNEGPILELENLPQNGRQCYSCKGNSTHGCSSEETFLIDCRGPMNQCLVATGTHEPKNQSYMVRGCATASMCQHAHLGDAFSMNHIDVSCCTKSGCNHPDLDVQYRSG

T1 sequence (Q03405 23-305): as above
cynomolgus monkey uPAR, sequence (Q9GK78 23-305): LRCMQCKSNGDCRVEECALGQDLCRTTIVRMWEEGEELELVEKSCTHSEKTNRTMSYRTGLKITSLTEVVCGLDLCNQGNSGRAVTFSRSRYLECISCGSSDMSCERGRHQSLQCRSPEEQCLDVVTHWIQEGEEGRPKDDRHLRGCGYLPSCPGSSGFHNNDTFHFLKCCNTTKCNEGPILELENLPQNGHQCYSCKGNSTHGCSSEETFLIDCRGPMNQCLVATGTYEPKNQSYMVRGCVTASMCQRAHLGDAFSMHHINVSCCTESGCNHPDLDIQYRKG

| ADCC against MDA-MB-231 cells with NK-92 MI CD16a effector cells, EC50 [1] [pM] | ADCC against MDA-MB-231 cells with NK-92 MI CD16a effector cells, Max% [1] [%] | ADCC against MDA-MB-231 cells with human PBMCs, EC50 [1] [pM] | ADCC against MDA-MB-231 cells with human PBMCs, Max% [1] [%] | EC50 [2] [pM] | EC50 (cynomolgus monkey uPAR) [pM] | EC50 [3] [pM] | Binder |
| --- | --- | --- | --- | --- | --- | --- | --- |
| 890 | 28.2 | 110 | 47.4 | 920 | 270 | 530 | anti-uPAR recombinant antibody 3159 (mouse/human chimeric IgG1) (antibody, V domains shown) VH: QVTLKESGPGILQSSLTLSLTCSLSGFSLSTSGMGVSWIRQPSGKGLEWLAHIYWDDDKRYNPSLKTRLTISKDASRDQVFLKIISVDTADTGTYYCGRRVRNYFSGTSYWYFDVWGTGTTVTVSS VL: DVLMTQTPLSLSVSLGDQASISCRSSQNILHRTGNTYLEWYLQKPGQSPKLLIYKVSNRFSGVPDRFSGSGSGTDFTLKISRLEAEDLGVYYCFQGSYVPFTFGSGTKLEMK |
| 1140 | 18.8 | 90 | 57.5 | 690 | 150 | 410 | anti-uPAR recombinant antibody 8163 (mouse/human chimeric IgG1) (antibody, V domains shown) VH: EVQLVESGGGLVQPGESLTLSCDSNEFDFPSHDMSWVRKTPEKRLELVAAIDSDGGLTYYSNSRERRFIISRDNTKNTLYLQMRSLRSEDTALYYCARRRASYWYFDVWGTGTTVTVSS VL: DILLTQSPAILPVSPGERVSFSCRASQNIGTSIHWYQQRTNGSPRLLIKYASESISGIPSRFSGSGSGTDFTLSINGVESEDIGDYYCQQSNSWPTFGGGTKLEIK |
| 5590 | 27.2 | 350 | 52 | 2070 | 180 | 520 | anti-uPAR recombinant antibody 11857 (mouse/human chimeric IgG1) (antibody, V domains shown) VH: EVQLRQSGPELVKPGASVKISCKASGYTFTDYYMNWVKQSHEKSLEWIGNINPNNGGTDYNQKFKGKATLTVDKSSSTAYMELRSLTSEDSAVYYCARSYGSRFPYWGLGTLVTVSA VL: DIQMTQTTSSLSASLGDRVTISCRASQDITNYLSWYQQKPDGTVKLLIFYTAVLQSGFPLRFSGSGSGADYSLTISNLEQEDFATYFCQQGHTLPWTFGGGTKLEIK |
